In patent US20130195863A1, “Methods and Pharmaceutical Compositions for the Treatment of Bone Density Related Diseases” (priority 2010, published 2013):

B1: Slit2: natural ligand of ROBO1; tested as conditioned medium from HEK cells stably expressing human Slit-2 (protein)
chain: QCSCSGSTVDCHGLALRSVPRNIPRNTERLDLNGNNITRITKTDFAGLRHLRVLQLMENKISTIERGAFQDLKELERLRLNRNHLQLFPELLFLGTAKLYRLDLSENQIQAIPRKAFRGAVDIKNLQLDYNQISCIEDGAFRALRDLEVLTLNNNNITRLSVASFNHMPKLRTFRLHSNNLYCDCHLAWLSDWLRQRPRVGLYTQCMGPSHLRGHNVAEVQKREFVCSGHQSFMAPSCSVLHCPAACTCSNNIVDCRGKGLTEIPTNLPETITEIRLEQNTIKVIPPGAFSPYKKLRRIDLSNNQISELAPDAFQGLRSLNSLVLYGNKITELPKSLFEGLFSLQLLLLNANKINCLRVDAFQDLHNLNLLSLYDNKLQTIAKGTFSPLRAIQTMHLAQNPFICDCHLKWLADYLHTNPIETSGARCTSPRRLANKRIGQIKSKKFRCSAKEQYFIPGTEDYRSKLSGDCFADLACPEKCRCEGTTVDCSNQKLNKIPEHIPQYTAELRLNNNEFTVLEATGIFKKLPQLRKINFSNNKITDIEEGAFEGASGVNEILLTSNRLENVQHKMFKGLESLKTLMLRSNRITCVGNDSFIGLSSVRLLSLYDNQITTVAPGAFDTLHSLSTLNLLANPFNCNCYLAWLGEWLRKKRIVTGNPRCQKPYFLKEIPIQDVAIQDFTCDDGNDDNSCSPLSRCPTECTCLDTVVRCSNKGLKVLPKGIPRDVTELYLDGNQFTLVPKELSNYKHLTLIDLSNNRISTLSNQSFSNMTQLLTLILSYNRLRCIPPRTFDGLKSLRLLSLHGNDISVVPEGAFNDLSALSHLAIGANPLYCDCNMQWLSDWVKSEYKEPGIARCAGPGEMADKLLLTTPSKKFTCQGPVDVNILAKCNPCLSNPCKNDGTCNSDPVDFYRCTCPYGFKGQDCDVPIHACISNPCKHGGTCHLKEGEEDGFWCICADGFEGENCEVNVDDCEDNDCENNSTCVDGINNYTCLCPPEYTGELCEEKLDFCAQDLNPCQHDSKCILTPKGFKCDCTPGYVGEHCDIDFDDCQDNKCKNGAHCTDAVNGYTCICPEGYSGLFCEFSPPMVLPRTSPCDNFDCQNGAQCIVRINEPICQCLPGYQGEKCEKLVSVNFINKESYLQIPSAKVRPQTNITLQIATDEDSGILLYKGDKDHIAVELYRGRVRASYDTGSHPASAIYSVETINDGNFHIVELLALDQSLSLSVDGGNPKIITNLSKQSTLNFDSPLYVGGMPGKSNVASLRQAPGQNGTSFHGCIRNLYINSELQDFQKVPMQTGILPGCEPCHKKVCAHGTCQPSSQAGFTCECQEGWMGPLCDQRTNDPCLGNKCVHGTCLPINAFSYSCKCLEGHGGVLCDEEEDLFNPCQAIKCKHGKCRLSGLGQPYCECSSGYTGDSCDREISCRGERIRDYYQKQQGYAACQTTKKVSRLECRGGCAGGQCCGPLRSKRRKYSFECTDGSSFVDEVEKVVKCGCTRCVS
B2: ShRNA-RB1: small hairpin RNA against human Robo1, SEQ ID NO:1 forward and SEQ ID NO:2 reverse, under U6 promoter (nucleic acid)
sense: ACCGCAGTACTAAGGGAACAATAAGTTCTCTATTGTTCCCTTAGTACTGCTTTTTC
antisense: TGCAGAAAAAGCAGTACTAAGGGAACAATAGAGAACTTATTGTTCCCTTAGTACTG
modifications: target site or template, no part of the molecule

Assays:
[1] = test system: breast cancer cells expressing ROBO1 (SC-transfected MDA-MB-231/B02); test: Effect of Slit2 on cell migration (96-microwell plates); format: cell-based, human; details: conditioned medium from Slit2-expressing HEK cells; effect seen in SC-transfected cells as opposed to Sh-transfected (ROBO1-silenced) cells
Protocol: The effects of Slit2, […] (RANKL) and osteoprotegerin (OPG) on cell migration were studied using 96-microwell plates (Millipore). Experiments were carried out essentially as described above with minor modifications. Briefly, inserts were loaded with 75 μl of a cell suspension (2×10^5 cells/ml) and 150 μl of chemoattractant was placed in the lower chamber. The chemoattractant consisted of culture medium containing 0.5% (v/v) fetal calf serum with or without RANKL, OPG or the conditioned medium from Slit2-expressing HEK cells. Remaining of the experiments was as described above.

[2] = test system: MDA-MB-231/B02 human breast cancer cells; test: Cell invasion assay (Matrigel-coated inserts); format: cell-based; details: Sh1.32 and Sh1.33 cells vs scrambled-transfected and parental cells
Protocol: Cell migration and invasion assays: Cell migration and invasion assays were performed in 24-well cell culture chambers with 8-μm diameter pore-size inserts (Becton Dickinson), as previously described (Zhang et al., Cancer Res., 67:5821-5830, 2007). Inserts were coated with 100-μl basement membrane Matrigel (3 μg/ml; Becton Dickinson) for 90 min at 37° C. in order to perform cell invasion experiments. Cancer cells (1.5×10^5 cells/ml) were re-suspended in DMEM culture medium containing 0.1% (w/v) bovine serum albumin and 300-μl of this cell suspension were loaded into each insert (upper chamber). The chemoattractant [10% (v/v) fetal calf serum] was placed in the lower chamber (750 μl/well). The plates were incubated for 6 h at 37° C. in a 5% CO2 incubator. After incubation, the inserts were collected carefully, the nonmigrating cells were removed and the migrating cells on the under surface of the inserts were fixed and stained with crystal violet. The membranes were mounted on glass slides and cells were counted under microscope.

ROBO1 mRNA = test: Quantitative real-time PCR of ROBO1 transcript after ROBO1 silencing; format: cell-based, human; details: clones Sh1.32 and Sh1.33 vs scrambled-transfected SC2.1 and SC2.4 cells
Excerpt: (§1) The small hairpins RNA (siRNA) against human Robo1 were designed with the Promega Si Designer tool. The oligos used were as follows: ShRNA-RB1 forward, 5′-ACCgCAgTACTAAgggAA-CAATAAgTTCTCTATTgTTCCCTTAgTACTgCTTTTTC-3′(SEQ ID NO:1); ShRNA-RB1 reverse, 5′-TgCAgAAAAAgCAg-TACTAAgggAACAATAgAgAACTTATTgTTCCCTT-AgTACTg-3′ (SEQ ID NO:2).
(§2) The shRNAs and corresponding scrambles duplex were synthesized with the psiSTRIKE puromycin kit (Promega) under U6 promoter. MDA-MB-231/B02-Frt11 cells were transfected with the siRNA and scrambles duplex with Transfast Transfection Reagent (Promega), according to the manufacturer's instructions. Selection of the clones was obtained after growing the cells for two weeks in the presence of puromycin (2 μg/ml).
(§3) RNA isolation, reverse transcriptase-polymerase chain reaction (RT-PCR), and quantitative real-time PCR (qPCR): RNA was extracted from cells using the Nucleospin RNA II kit (Macherey-Nagel) and cDNA produced from 2 μg total RNA using the MMLV polymerase Promega. qPCR was performed using SYBR Green qPCR Kit (Finnzymes). Probes were purchased from Invitrogen.

[3] = test system: MDA-MB-231/B02 human breast cancer cells; test: Scratch wound assay; format: cell-based; details: Sh-transfected vs parental and scrambled-transfected cells; statistically significant
Protocol: Scratch wound assay: Cells were seeded at a concentration of 1×10^5 cells into 24-well plates and cultured for 24 hours at 37° C. in culture medium containing 10% (v/v) fetal calf serum. After incubation, the culture medium was removed and cells were further cultured in medium containing or not containing 5% (v/v) fetal calf serum, at which time a wound scratch was made on the cell monolayer by using a 20-μl micropipette tip. Cells were fixed, stained with crystal violet, and photographed 24 h later. Alternatively, cell migration was monitored by time-lapse videomicroscopy. Microscopic images were recorded, in a time lapse mode, with a CCD camera attached to a phase contrast microscope (Zeiss Axiovert 200M) and the behaviour of migrating cells was tracked over 24 hours using ImageJ software. Analysis of the images was performed using MetaMorph software.

ROBO4 mRNA = ROBO4 mRNA expression after ROBO1 silencing; format: cell-based, human; details: ROBO1 silencing in MDA-MB-231/B02 cells
Excerpt: as §1, §2, §3

ROBO1 = test: Confocal microscopy of ROBO1 immunostaining; format: cell-based, human; details: ShRNA-transfected vs scrambled-transfected cells
Protocol: Confocal microscopy: Subconfluent cell layers were fixed in 4% (w/v) formaldehyde for 30 min, washed three times with PBS and permeabilized for 5 min in PBS containing 0.2% (v/v) Triton-X-100. Permeabilized cells were then incubated with rabbit anti-Robo1 antibody ab7279 (17 μg/ml; AbCam) for 1 h, washed in PBS then incubated with a secondary, FITC-conjugated, anti-rabbit antibody (Sigma). Actin was labeled with phalloidin (Invitrogen) and nuclei were labeled with DAPI. Slides were viewed using confocal microscope Leica TCS-SP2.

Row | Molecule | migration of SC-transfected cells induced by FCS [1] | invasion [2] | ROBO1 transcript down regulation (ROBO1 mRNA) [%] | wound closure [3] | effect on ROBO4 mRNA expression levels (ROBO4 mRNA) | ROBO1 immunostaining at the plasma membrane (ROBO1)
1 | B1 | inhibited the migration |  |  |  |  | 
2 | B2 |  | substantial gain in invasion | 90 | faster wound closure | did not affect | totally disappeared
